# T1: Cas1;Cas2 (Escherichia coli;Escherichia coli, UniProt Q46896;P45956 1-305;1-94, |)
# T1 sequence 1: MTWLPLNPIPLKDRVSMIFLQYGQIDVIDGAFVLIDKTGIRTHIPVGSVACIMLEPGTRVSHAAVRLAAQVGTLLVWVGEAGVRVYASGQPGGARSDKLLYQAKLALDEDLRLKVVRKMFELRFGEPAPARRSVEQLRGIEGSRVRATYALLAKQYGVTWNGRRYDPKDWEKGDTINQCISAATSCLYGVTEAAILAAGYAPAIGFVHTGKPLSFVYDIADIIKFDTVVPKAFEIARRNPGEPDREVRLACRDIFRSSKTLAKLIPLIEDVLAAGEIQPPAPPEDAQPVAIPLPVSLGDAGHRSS
# T1 sequence 2: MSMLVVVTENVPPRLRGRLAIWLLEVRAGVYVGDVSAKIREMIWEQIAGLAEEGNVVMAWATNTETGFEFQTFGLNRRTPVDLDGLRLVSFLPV
# Tests used:
# Cas1;Cas2 [1] = molecular target: T1, Cas1;Cas2; assay: exonuclease footprinting; RecJ with RecBC or RecBCD, 1 mM ATP; 33-nt product; 40 mM Tris-HCl pH 7.5, 50 mM NaCl, 10 mM MgCl2, 0.5 mM TCEP, 0.1 mg/ml BSA; EMSA (Fig. S9) 25 nM DNA, 2 uM Cas1-Cas2, 37 C 30 min; footprinting 0.2 uM DNA, 1.6; conditions: protein: recombinant;recombinant; tags: ;; chain copies: 4;2; label: 3'-FAM on strand 1; fork; 23-bp duplex; extended 5' arm annealed to strand 3 as 15-bp blunt duplex
# Cas1;Cas2 [2] = molecular target: T1, Cas1;Cas2; assay: EMSA; preannealed; 40 mM Tris-HCl pH 7.5, 50 mM NaCl, 10 mM MgCl2, 0.5 mM TCEP, 0.1 mg/ml BSA; EMSA (Fig. S9) 25 nM DNA, 2 uM Cas1-Cas2, 37 C 30 min; footprinting 0.2 uM DNA, 1.6; conditions: protein: recombinant;recombinant; tags: ;; chain copies: 4;2; label: 5'-32P on strand 1; 28-bp duplex, single 3' overhang 5 nt
# Cas1;Cas2 [3] = molecular target: T1, Cas1;Cas2; assay: EMSA; preannealed; longer overhang stimulated binding; 40 mM Tris-HCl pH 7.5, 50 mM NaCl, 10 mM MgCl2, 0.5 mM TCEP, 0.1 mg/ml BSA; EMSA (Fig. S9) 25 nM DNA, 2 uM Cas1-Cas2, 37 C 30 min; footprinting 0.2 uM DNA, 1.6; conditions: protein: recombinant;recombinant, tags: ;, chain copies: 4;2, label: 5'-32P on strand 1, 28-bp duplex
# Cas1;Cas2 [4] = molecular target: T1, Cas1;Cas2; assay: EMSA; strands added separately; 40 mM Tris-HCl pH 7.5, 50 mM NaCl, 10 mM MgCl2, 0.5 mM TCEP, 0.1 mg/ml BSA; EMSA (Fig. S9) 25 nM DNA, 2 uM Cas1-Cas2, 37 C 30 min; footprinting 0.2 uM DNA, 1.6; conditions: protein: recombinant;recombinant, tags: ;, chain copies: 4;2, label: 5'-32P on strand 1, 33-bp duplex
# Cas1;Cas2 [5] = molecular target: T1, Cas1;Cas2; assay: EMSA; preannealed; reference for substrate 10; 40 mM Tris-HCl pH 7.5, 50 mM NaCl, 10 mM MgCl2, 0.5 mM TCEP, 0.1 mg/ml BSA; EMSA (Fig. S9) 25 nM DNA, 2 uM Cas1-Cas2, 37 C 30 min; footprinting 0.2 uM DNA, 1.6; conditions: protein: recombinant;recombinant; tags: ;; chain copies: 4;2; label: 5'-32P on strand 1; 23-bp duplex, 3' overhang 5 nt on each end
binder,measurement,setting,value
"double fork with 15-bp blunt end (Fig. 4B, S7) (dsDNA) DNA 1: CCGCCTTAACCGGTCAACCTAAACATTTACCGCGCGATCGGGTGTTTGGTGA DNA 2: CACAAAAACACCCGATCGCGCGGTAAATTGGGCTTGG DNA 3: GACCGGTTAAGGCGG",binding result,Cas1;Cas2 [1],binds
substrate 3 (dsDNA) DNA 1: ATTTACTACTCGTTCTGGTGTTTCTCGT DNA 2: ACGAGAAACACCAGAACGAGTAGTAAATTGGGC,binding result,Cas1;Cas2 [2],binds
substrate 4 (dsDNA) DNA 1: ATTTACTACTCGTTCTGGTGTTTCTCGT DNA 2: ACGAGAAACACCAGAACGAGTAGTAAATTGGGCTT,binding result,Cas1;Cas2 [3]; single 3' overhang 7 nt with PAM,binds
substrate 10 (33/37) (dsDNA) DNA 1: GCCCAATTTACTACTCGTTCTGGTGTTTCTCGT DNA 2: ACGAGAAACACCAGAACGAGTAGTAAATTGGGCTTGA,binding signal,Cas1;Cas2 [4]; single 3' overhang 4 nt with PAM,18 fold more than preannealed
substrate 9 (33/35) (dsDNA) DNA 1: GCCCAATTTACTACTCGTTCTGGTGTTTCTCGT DNA 2: ACGAGAAACACCAGAACGAGTAGTAAATTGGGCTT,binding signal,Cas1;Cas2 [4]; single 3' overhang 2 nt with PAM,5 fold more than preannealed
substrate 5 (dsDNA) DNA 1: ATTTACTACTCGTTCTGGTGTTTCTCGT DNA 2: ACGAGAAACACCAGAACGAGTAGTAAATTGGGCTTGA,binding result,Cas1;Cas2 [3]; single 3' overhang 9 nt with PAM,binds
substrate 2 (dsDNA) DNA 1: ATTTACTACTCGTTCTGGTGTTTCTCGT DNA 2: AAACACCAGAACGAGTAGTAAATTGGGC,binding result,Cas1;Cas2 [5],binds
